Measured values as given in US20230340055A1 (published 2023).

Legend:
[1] = biological target: T1, IL-2Rβγ (dimeric intermediate affinity IL-2 receptor), human, on cells (human, UniProt P14784 27-551; P31785 23-369); assay: cell-based or functional assay
T1 sequence (looked up) 1: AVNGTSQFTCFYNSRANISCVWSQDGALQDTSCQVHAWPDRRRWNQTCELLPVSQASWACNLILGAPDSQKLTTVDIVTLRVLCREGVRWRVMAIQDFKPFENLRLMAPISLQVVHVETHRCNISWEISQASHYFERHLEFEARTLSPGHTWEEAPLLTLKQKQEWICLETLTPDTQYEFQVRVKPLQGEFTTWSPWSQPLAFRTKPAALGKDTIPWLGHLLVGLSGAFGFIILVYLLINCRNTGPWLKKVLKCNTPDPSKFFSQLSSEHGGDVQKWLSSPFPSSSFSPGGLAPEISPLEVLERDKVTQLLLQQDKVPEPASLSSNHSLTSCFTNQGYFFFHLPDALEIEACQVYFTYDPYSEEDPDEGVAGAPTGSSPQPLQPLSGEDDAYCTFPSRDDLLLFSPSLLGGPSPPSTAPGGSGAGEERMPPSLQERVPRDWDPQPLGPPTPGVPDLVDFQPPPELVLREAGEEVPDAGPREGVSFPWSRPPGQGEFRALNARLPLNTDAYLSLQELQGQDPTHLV
T1 sequence (looked up) 2: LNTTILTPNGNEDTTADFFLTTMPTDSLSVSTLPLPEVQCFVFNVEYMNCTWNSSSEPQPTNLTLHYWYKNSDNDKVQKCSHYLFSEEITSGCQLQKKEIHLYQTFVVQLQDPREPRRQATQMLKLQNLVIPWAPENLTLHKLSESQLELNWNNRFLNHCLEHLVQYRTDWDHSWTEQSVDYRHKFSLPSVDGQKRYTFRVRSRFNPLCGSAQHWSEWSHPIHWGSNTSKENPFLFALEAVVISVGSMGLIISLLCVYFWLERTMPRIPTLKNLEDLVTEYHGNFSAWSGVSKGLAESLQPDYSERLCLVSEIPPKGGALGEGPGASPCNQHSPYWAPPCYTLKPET

[2] = biological target: T2, IL-2Rαβγ (trimeric high-affinity IL-2 receptor), human, on cells (human, UniProt P01589 22-272; P14784 27-551; P31785 23-369); assay: cell-based or functional assay
T2 sequence (looked up) 1: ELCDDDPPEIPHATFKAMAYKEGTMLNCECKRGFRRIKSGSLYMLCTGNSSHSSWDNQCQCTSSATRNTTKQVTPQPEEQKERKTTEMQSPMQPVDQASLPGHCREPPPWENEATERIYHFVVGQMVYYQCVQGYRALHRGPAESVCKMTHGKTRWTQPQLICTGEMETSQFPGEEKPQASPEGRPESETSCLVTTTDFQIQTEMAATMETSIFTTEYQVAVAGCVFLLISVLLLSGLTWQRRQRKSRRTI
T2 sequence (looked up) 2: T1 sequence (looked up) 1
T2 sequence (looked up) 3: T1 sequence (looked up) 2

[3] = biological target: T3, Human IL-2 Receptor alpha, Fc-Tag (Symansis, New Zealand) (human, UniProt P01589 22-240); assay: calculated from the SPR KD values of Example 15; reference protein 5a
T3 construct: extracellular domain; Bought reagent; also called IL-2Rα; IL-2Rα-Fc; not shown: Fc-Tag (captured by anti-human IgG (Fc) antibody)
T3 sequence (looked up): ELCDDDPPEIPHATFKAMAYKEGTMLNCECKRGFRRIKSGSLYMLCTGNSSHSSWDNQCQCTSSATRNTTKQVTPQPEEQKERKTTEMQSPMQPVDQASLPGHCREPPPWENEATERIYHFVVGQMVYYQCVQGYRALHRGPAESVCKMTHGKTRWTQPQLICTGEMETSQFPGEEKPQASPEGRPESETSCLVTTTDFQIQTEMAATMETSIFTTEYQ
Protocol: (§1) For the determination of binding kinetics to IL-2Rα the following chip preparation was used: Human IL-2 Receptor alpha, Fc-Tag (Symansis, New Zealand) was diluted in HBS-EP running buffer (GE Healthcare, 10 mM HEPES, 150 mM NaCl, 3 mM EDTA, 0.05% Surfactant P20, pH 7.4) to approx. 0.25 µg/mL and immobilized at a flow rate of 50 µL/min for 60 s to achieve 90 - 110 response units (RU).
as §1, with “IL-2Rβ” for “IL-2Rα”, “beta,” for “alpha,”, “around” for “approx.”, “300” for “90”, “330” for “110”
(50 µL/min flow rate, 60 s contact time, 300 s dissociation time). Double referenced data (subtracted data from the reference flow cell and the buffer only samples) was analysed via a kinetic fit (1:1 binding model) to determine KD, kₐ and kd. Regeneration after each cycle was performed with 3 M MgCl₂.

EC50, pSTAT5 MFI, CD8 (human PBMCs) [1]: 78.8 ng/mL
EC50, pSTAT5 MFI, NK (human PBMCs) [1]: 11.7 ng/mL
EC50, pSTAT5 MFI, Treg (human PBMCs) [2]: 38 ng/mL
ratio of Ratio protein 6 to Ratio protein 5a (KD to IL-2Rα / KD to IL-2Rβ) [3]: > 100
B1: protein 6 (ligand)
chain: APTSSSTKKTQLQLEHLLLDLQMILNGINNYKNPKLTFGNSTKFYMPKKATELKHLQCLEEELKPLEEVLNLAQSKNFHLRPRDLISNINVIVLELKGSETTFMCEYADETATIVEFLNRWITFSQSIISTLT
modifications: glycosylated (same sequence with the N-glycosylation motif FGNST as protein 1f); glycan sites not analysed separately for protein 6
